The values that follow come from patent US20180155451A1 (published 2018).

One may read the Kd as the free concentration of one partner at which half of the binding sites on the other are occupied at equilibrium, for simple one-to-one binding. Read a low Kd as higher affinity.

For assay [1], the target named is T1, FcgRIIIaF (human, UniProt P08637 17-208).
T1 construct: extracellular domain; Soluble extracellular domain with C-terminal His tag; polymorphic site made after J. Clin. Invest; also called FcγRIIIa F; not shown: His tag attached to the C terminus
Description: SPR (Biacore), antibody captured, FcgR as analyte. How it is done:
(§1) Analysis of interaction between obj ective antibody and the FcγR was carried out using Biacore T100 (GE Healthcare), Biacore T200, Biacore A100, and Biacore 4000. HBS-EP+ (GE Healthcare) was used as the running buffer, and the measurement temperature was set to 25° C. Chips produced by immobilizing the antigen peptide by the amine coupling method to a Series S sensor Chip CM5 (GE Healthcare), chips produced by allowing preliminarily biotinylated antigen peptides to interact with and immobilize onto a Series S Sensor Chip SA (certified) (GE Healthcare), chips produced by immobilizing Protein L (ACTIGEN, BioVision) to Series S Sencor Chip CM5 (GE Healthcare), or chips produced by immobilizing Protein A/G (Thermo Scientific) to Series S Sencor Chip CM5 (GE Healthcare) were used. Antibodies of interest were captured onto these chips, and allowed to interact to each FcγR diluted with running buffer. To regenerate and repeatedly use the chip, the antibodies captured onto the chip were washed off by reacting 10 mM glycine-HCl, pH 1.5.
Background: Surface plasmon resonance follows binding to a sensor surface in real time, without labels.

In assay [2] the target is T2, FcgRIIIaV (human, UniProt P08637 17-208).
T2 construct: extracellular domain; Soluble extracellular domain with C-terminal His tag; polymorphic site made after J. Clin. Invest; also called FcγRIIIa V; not shown: His tag attached to the C terminus
Briefly: SPR (Biacore), antibody captured, FcgR as analyte. The procedure: as §1

Assay [3] addresses T3, FcgRIa (human, UniProt P12314 16-292).
T3 construct: extracellular domain; Soluble extracellular domain with C-terminal His tag, expressed in FreeStyle293 cells; also called FcγRIa; FcγRI; not shown: His tag attached to the C terminus
Description: SPR (Biacore), antibody captured, FcgR as analyte. The procedure:
as §1

The target in assay [4] is T4, FcgRIIaH (human, UniProt P12318 34-217).
T4 construct: extracellular domain; Soluble extracellular domain with C-terminal His tag; also called FcγRIIa H; FcγRIIa type H; not shown: His tag attached to the C terminus
T4 sequence (looked up): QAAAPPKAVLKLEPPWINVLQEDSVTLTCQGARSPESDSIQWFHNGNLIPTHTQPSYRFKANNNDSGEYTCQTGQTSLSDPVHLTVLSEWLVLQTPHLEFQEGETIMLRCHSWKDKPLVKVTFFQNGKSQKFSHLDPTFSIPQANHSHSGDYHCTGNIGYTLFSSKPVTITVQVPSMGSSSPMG
Briefly: SPR (Biacore), antibody captured, FcgR as analyte. How it is done: as §1

Assay [5] has as its target T5, FcgRIIaR (human, UniProt P12318 34-217).
T5 construct: extracellular domain; Soluble extracellular domain with C-terminal His tag; also called FcγRIIa R; FcγRIIa type R; not shown: His tag attached to the C terminus
T5 sequence (looked up): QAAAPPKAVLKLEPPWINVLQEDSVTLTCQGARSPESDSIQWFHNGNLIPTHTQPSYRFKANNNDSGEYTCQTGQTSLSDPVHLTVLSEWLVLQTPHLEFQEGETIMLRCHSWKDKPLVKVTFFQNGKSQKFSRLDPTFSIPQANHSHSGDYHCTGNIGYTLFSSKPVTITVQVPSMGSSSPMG
Description: SPR (Biacore), antibody captured, FcgR as analyte. How it is done: as §1

The target in assay [6] is T6, FcgRIIb (human, UniProt P31994 43-217).
T6 construct: extracellular domain; Soluble extracellular domain with C-terminal His tag; also called FcγRIIb; CD32B; not shown: His tag attached to the C terminus
T6 sequence (looked up): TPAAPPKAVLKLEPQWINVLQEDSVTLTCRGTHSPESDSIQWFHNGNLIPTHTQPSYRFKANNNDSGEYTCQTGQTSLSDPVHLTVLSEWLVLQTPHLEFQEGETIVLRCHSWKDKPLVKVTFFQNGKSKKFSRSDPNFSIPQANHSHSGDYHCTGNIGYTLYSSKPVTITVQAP
Description: SPR (Biacore), antibody captured, FcgR as analyte. The procedure:
as §1

The target of assay [7] is T1, FcgRIIIaF. Briefly: SPR (Biacore); KD of H240-Kn120/H240-Hl068/L73-k0 divided by KD of this antibody. The procedure:
(§2) Analysis of interaction between obj ective antibody and the FcγR was carried out using Biacore T100 (GE Healthcare), Biacore T200, Biacore A100, and Biacore 4000.

For assay [8], the target named is T2, FcgRIIIaV. The assay is described as above. How it is done:
as §2

The target in assay [9] is T3, FcgRIa. The description is as above. How it is done:
as §2

Assay [10] concerns the target T4, FcgRIIaH. The description is as above. The procedure:
as §2

The target in assay [11] is T5, FcgRIIaR. Described as above. How it is done:
as §2

For assay [12], the target named is T6, FcgRIIb. The description is as above. The procedure:
as §2

T3 sequence (P12314 16-292): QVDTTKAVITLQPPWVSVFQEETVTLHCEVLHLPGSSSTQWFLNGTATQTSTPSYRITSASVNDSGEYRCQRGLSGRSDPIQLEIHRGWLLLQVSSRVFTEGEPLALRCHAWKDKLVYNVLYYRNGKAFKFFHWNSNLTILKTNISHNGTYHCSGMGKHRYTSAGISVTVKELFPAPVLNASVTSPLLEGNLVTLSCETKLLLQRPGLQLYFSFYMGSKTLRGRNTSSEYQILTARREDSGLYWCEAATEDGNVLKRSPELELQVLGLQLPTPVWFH
T1 sequence (P08637 17-208): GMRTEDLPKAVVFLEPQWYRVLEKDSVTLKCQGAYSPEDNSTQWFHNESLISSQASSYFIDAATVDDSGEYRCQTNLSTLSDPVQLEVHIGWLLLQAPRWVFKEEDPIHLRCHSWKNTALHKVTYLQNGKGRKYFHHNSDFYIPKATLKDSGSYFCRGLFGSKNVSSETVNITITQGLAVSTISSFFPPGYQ
T2 sequence (P08637 17-208 F176V limits assumed): as the sequence (P08637 17-208) above, with F160V counted along it

B1: H240-Kn149/H240-Hl068/L73-k0 (antibody, human IgG1, kappa)
heavy 1: QDQLVQSGAEVKKPGASVKVSCKASGFNIKDTYIQWVRQAPGQGLEWMGRIDPLRKQTKYREKFEGRVTITADTSTNTAYMELSSLRSEDTAVYYCVRSGREFDYWGQGTLVTVSSASTKGPSVFPLAPSSKSTSGGTAALGCLVKDYFPEPVTVSWNSGALTSGVHTFPAVLQSSGLYSLSSVVTVPSSSLGTQTYICNVNHKPSNTKVDKKVEPKSCDKTHTCPPCPAPEYYWGPMVFLFPPKPKDTLMISRTPEVTCVVVDVSDEDPEVKFNWYVDGVEVHNAKTKPREEQYNATYRVVSVLTVLHQDWLNGKEYKCKVSNKDWPAPIELTISKAKGQPREPQVCTLPPSRDELTKNQVSLWCLVKGFYPSDIAVEWESNGQPENNYKTTPPVLDSDGSFFLYSKLTVDKSRWQQGNVFSCSVMHEALHNHYTQKSLSLSP
heavy 2: QDQLVQSGAEVKKPGASVKVSCKASGFNIKDTYIQWVRQAPGQGLEWMGRIDPLRKQTKYREKFEGRVTITADTSTNTAYMELSSLRSEDTAVYYCVRSGREFDYWGQGTLVTVSSASTKGPSVFPLAPSSKSTSGGTAALGCLVKDYFPEPVTVSWNSGALTSGVHTFPAVLQSSGLYSLSSVVTVPSSSLGTQTYICNVNHKPSNTKVDKKVEPKSCDKTHTCPPCPAPELLGGPSVFLFPPKPKDTLMISRTPEVTCVVVDVSHEEPEVKFNWYVDGVEVHNAKTKPREEQYNSTYRVVSVLTVLHQDWLNGKEYKCKVSNDALPKPIEETISKAKGQPREPQVYTLPPSRCELTKNQVSLSCAVKGFYPSDIAVEWESNGQPENNYKTTPPVLDSDGSFFLVSKLTVDKSRWQQGNVFSCSVMHEALHNHYTQKSLSLSP
light: DIQMTQSPSSLSASVGDRVTITCRASQDIHKYIAWYQQKPGQAPRLLIQYTSTLQPGVPSRFSGSGSGTDYTFTISSLQPEDIATYYCLQYEQLRTFGGGTKVEIKRTVAAPSVFIFPPSDEQLKSGTASVVCLLNNFYPREAKVQWKVDNALQSGNSQESVTEQDSKDSTYSLSSTLTLSKADYEKHKVYACEVTHQGLSSPVTKSFNRGEC
notes: Heterodimerized anti-epiregulin IgG1 antibody; L328W and K334L introduced into H240-Kn120; also called H240-Kn149/H240-HI068/L73-k0
For the molecule B1, the Kd with FcgRIIIaF [1] was determined as 1.5 nM; with FcgRIIIaV [2] it was 0.32 nM; with FcgRIa [3], 0.38 nM; with FcgRIIaH [4], 26 nM; with FcgRIIaR [5], 19 nM; with FcgRIIb [6] it was 150 nM. Moreover, the “Relative KD” value with FcgRIIIaF [7] was 1.5; with FcgRIIIaV [8] it was 1.1; with FcgRIa [9] it was 0.4; with FcgRIIaH [10] it was 1.6; with FcgRIIaR [11], 1.1; in the assay with FcgRIIb [12], 1.

B2: H240-Kn166/H240-Hl170/L73-k0 (antibody, human IgG1, kappa)
heavy 1: QDQLVQSGAEVKKPGASVKVSCKASGFNIKDTYIQWVRQAPGQGLEWMGRIDPLRKQTKYREKFEGRVTITADTSTNTAYMELSSLRSEDTAVYYCVRSGREFDYWGQGTLVTVSSASTKGPSVFPLAPSSKSTSGGTAALGCLVKDYFPEPVTVSWNSGALTSGVHTFPAVLQSSGLYSLSSVVTVPSSSLGTQTYICNVNHKPSNTKVDKKVEPKSCDKTHTCPPCPAPEYYWGPMVFLFPPKPKDTLMISRTPEVTCVVVDVSDEDPEVKFNWYVDGVEVHNAKTKPREEQYNATYRVVSVLTVLHQDWLNGKEYKCKVSNKDAPAPIEKTISKAKGQPREPQVCTLPPSRDELTKNQVSLWCLVKGFYPSDIAVEWESNGQPENNYKTTPPVLDSDGSFFLYSKLTVDKSRWQQGNVFSCSVMHEALHNHYTQKSLSLSP
heavy 2: QDQLVQSGAEVKKPGASVKVSCKASGFNIKDTYIQWVRQAPGQGLEWMGRIDPLRKQTKYREKFEGRVTITADTSTNTAYMELSSLRSEDTAVYYCVRSGREFDYWGQGTLVTVSSASTKGPSVFPLAPSSKSTSGGTAALGCLVKDYFPEPVTVSWNSGALTSGVHTFPAVLQSSGLYSLSSVVTVPSSSLGTQTYICNVNHKPSNTKVDKKVEPKSCDKTHTCPPCPAPELLGGPSVFLFPPKPKDTLMISRTPEVTCVVVDVSHEEPEVKFNWYVDGVEVHNAKTKPREEQYNSTYRVVSVLTVLHQDWLNGKEYKCKVSNDAAPKPIEETISKAKGQPREPQVYTLPPSRCELTKNQVSLSCAVKGFYPSDIAVEWESNGQPENNYKTTPPVLDSDGSFFLVSKLTVDKSRWQQGNVFSCSVMHEALHNHYTQKSLSLSP
light: DIQMTQSPSSLSASVGDRVTITCRASQDIHKYIAWYQQKPGQAPRLLIQYTSTLQPGVPSRFSGSGSGTDYTFTISSLQPEDIATYYCLQYEQLRTFGGGTKVEIKRTVAAPSVFIFPPSDEQLKSGTASVVCLLNNFYPREAKVQWKVDNALQSGNSQESVTEQDSKDSTYSLSSTLTLSKADYEKHKVYACEVTHQGLSSPVTKSFNRGEC
notes: Anti-epiregulin IgG1 antibody; L328A introduced into both H chains of H240-Kn120/H240-Hl068/L73-k0; also called H240-Kn166/H240-HI170/L73-k0
As for B2, the Kd worked out at 4.2 nM with FcgRIIIaF [1]; 1 nM with FcgRIIIaV [2]; 0.066 nM with FcgRIa [3]; 22 nM with FcgRIIaH [4]; 31 nM with FcgRIIaR [5]; 200 nM in the assay with FcgRIIb [6]. Further, the “Relative KD” value with FcgRIIIaF [7] was determined as 0.5; with FcgRIIIaV [8], 0.4; with FcgRIa [9], 2.4; with FcgRIIaH [10], 1.9; in the assay with FcgRIIaR [11], 0.6; with FcgRIIb [12] it was 0.8.
